The source of these data is paper doi:10.1101/2024.04.27.591446 (bioRxiv, 2024).

For one assay, the target named is SARS-CoV-2 RBD WU1 (SARS-CoV-2 Wuhan-Hu-1, UniProt P0DTC2). Briefly: SPR.
The next assay has as its target SARS-CoV1 Spike (SARS-CoV, strain  (P59594 …, UniProt P59594)). The experiment in a line: ELISA. For orientation: An ELISA detects its analyte on a solid surface through an enzyme-linked reagent.

B1: 1301B7 recombinant human monoclonal antibody (hmAb), IgG1 (antibody, V domains shown)
VH: EVQLVESGAEVKNPGSSVKVSCKASEGTFGSYPIIWVRQAPGQGLEWVGGIIPILGTVIYAQKFQGRVTITGDTYAGSAHMELSGLRSEDTAVFYCARGSYDYGDRLLNYTYYAMDVWGPGTTVTVSS
VL: QPGLTQPPSVSGAPGQRVTISCTGSRSNIGAVYAVHWYQHVPGAAPKLLIYENNNRPSGIPDRFSGSKSGTSASLVITGLQAEDEADYLCQSYDRSVGVVFGGGTRLTVL
B1: the binding result with SARS-CoV-2 RBD WU1 and with SARS-CoV1 Spike was “binds” in each case.
